# According to the supplement of paper PMC9112550, “Optimization of the antimicrobial peptide Bac7 by deep mutational scanning” (BMC Biology, 2022):
# System: Escherichia coli TOP10
# Assay: shrunken log2 fold change of peptide-encoding DNA abundance (4.5 h post-induction vs induction); higher = less antimicrobial activity (less host growth inhibition)
# Settings: time post-induction: 4.5 h; library: site-saturation at positions 5, 18, 19, 20
# 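Also: peptides expressed intracellularly from a pBAD plasmid library in pooled LB shake-flask culture, induced with 0.3% L-arabinose, DNA abundance read by NGS, three biological replicates, DESeq2 with apeglm shrinkage.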
row,Sequence,shrunken log2 fold change
1,RRIRKRPPRLPRPRPRPNQYPRP,-0.0702
2,RRIRRRPPRLPRPRPRPMQFPRP,-0.058
3,RRIRGRPPRLPRPRPRPVRPPRP,0.994
4,RRIRQRPPRLPRPRPRPDFDPRP,-0.0668
5,RRIRDRPPRLPRPRPRPYAHPRP,-0.31
6,RRIRDRPPRLPRPRPRPMKSPRP,0.0815
7,RRIRARPPRLPRPRPRPSVNPRP,-0.383
8,RRIRDRPPRLPRPRPRPQRAPRP,0.0568
9,RRIRQRPPRLPRPRPRPIASPRP,-0.0483
10,RRIRLRPPRLPRPRPRPHQYPRP,-0.297
11,RRIRDRPPRLPRPRPRPASIPRP,0.0781
12,RRIRSRPPRLPRPRPRPQKGPRP,-0.0456
13,RRIRVRPPRLPRPRPRPAHPPRP,0.0808
14,RRIRRRPPRLPRPRPRPDHWPRP,-0.136
15,RRIRWRPPRLPRPRPRPFVIPRP,-0.396
16,RRIRIRPPRLPRPRPRPPSLPRP,0.18
17,RRIRPRPPRLPRPRPRPVHIPRP,-0.208
18,RRIRGRPPRLPRPRPRPCISPRP,-0.273
19,RRIRCRPPRLPRPRPRPYWWPRP,-0.441
20,RRIRDRPPRLPRPRPRPRSMPRP,0.211
21,RRIRFRPPRLPRPRPRPKFIPRP,-1.02
22,RRIRHRPPRLPRPRPRPVHRPRP,-0.143
23,RRIRGRPPRLPRPRPRPKFEPRP,0.411
24,RRIRFRPPRLPRPRPRPDPPPRP,0.37
25,RRIRKRPPRLPRPRPRPGITPRP,0.266

row,Sequence,shrunken log2 fold change
1,RRIRDRPPRLPRPRPRPQFGPRP,-0.36
2,RRIRNRPPRLPRPRPRPVQWPRP,-0.0368
3,RRIRYRPPRLPRPRPRPRGWPRP,0.575
4,RRIRYRPPRLPRPRPRPCREPRP,-0.152
5,RRIRGRPPRLPRPRPRPKEDPRP,0.796
6,RRIRERPPRLPRPRPRPGCCPRP,0.131
7,RRIRTRPPRLPRPRPRPPECPRP,0.0838
8,RRIRGRPPRLPRPRPRPHGQPRP,0.578
9,RRIRNRPPRLPRPRPRPRNQPRP,-0.182
10,RRIRMRPPRLPRPRPRPYHEPRP,-0.391
11,RRIRTRPPRLPRPRPRPNSNPRP,-0.716
12,RRIRSRPPRLPRPRPRPANEPRP,0.0433
13,RRIRNRPPRLPRPRPRPTMSPRP,-0.453
14,RRIRMRPPRLPRPRPRPPGQPRP,1.24
15,RRIRQRPPRLPRPRPRPWWAPRP,-0.014
16,RRIRKRPPRLPRPRPRPPSEPRP,0.413
17,RRIRTRPPRLPRPRPRPSTTPRP,-0.0853
18,RRIRPRPPRLPRPRPRPNFDPRP,-0.0128
19,RRIRTRPPRLPRPRPRPIYQPRP,-0.364
20,RRIRQRPPRLPRPRPRPYYYPRP,-1.18
21,RRIRFRPPRLPRPRPRPKCIPRP,-0.338
22,RRIRMRPPRLPRPRPRPAIDPRP,0.718
23,RRIRMRPPRLPRPRPRPTSTPRP,0.16
24,RRIRWRPPRLPRPRPRPMGNPRP,-0.0828
25,RRIRARPPRLPRPRPRPLMTPRP,0.474

row,Sequence,shrunken log2 fold change
1,RRIRDRPPRLPRPRPRPMRSPRP,-0.00884
2,RRIRSRPPRLPRPRPRPPAAPRP,1.1
3,RRIRWRPPRLPRPRPRPVVHPRP,-0.102
4,RRIRCRPPRLPRPRPRPNLKPRP,-0.585
5,RRIRARPPRLPRPRPRPDPVPRP,0.688
6,RRIRCRPPRLPRPRPRPMECPRP,-0.00088
7,RRIRDRPPRLPRPRPRPIPRPRP,-0.187
8,RRIRPRPPRLPRPRPRPKKEPRP,0.0526
9,RRIRQRPPRLPRPRPRPRTGPRP,0.443
10,RRIRKRPPRLPRPRPRPFQWPRP,0.0233
11,RRIRRRPPRLPRPRPRPCHLPRP,-0.0646
12,RRIRWRPPRLPRPRPRPEIVPRP,-0.00443
13,RRIRDRPPRLPRPRPRPRDCPRP,0.0952
14,RRIRWRPPRLPRPRPRPSILPRP,-0.341
15,RRIRFRPPRLPRPRPRPAEWPRP,0.512
16,RRIRARPPRLPRPRPRPMDVPRP,0.241
17,RRIRKRPPRLPRPRPRPHRYPRP,0.321
18,RRIRARPPRLPRPRPRPKDHPRP,0.175
19,RRIRNRPPRLPRPRPRPGTQPRP,-0.128
20,RRIRVRPPRLPRPRPRPYFLPRP,-0.149
21,RRIRTRPPRLPRPRPRPMPIPRP,-0.0197
22,RRIRVRPPRLPRPRPRPKRGPRP,0.054
23,RRIRTRPPRLPRPRPRPEDCPRP,0.0288
24,RRIRFRPPRLPRPRPRPHWSPRP,-0.54
25,RRIRERPPRLPRPRPRPKKMPRP,-0.478

row,Sequence,shrunken log2 fold change
1,RRIRVRPPRLPRPRPRPRMGPRP,1.86
2,RRIRVRPPRLPRPRPRPVNYPRP,0.0937
3,RRIRKRPPRLPRPRPRPWLDPRP,0.296
4,RRIRRRPPRLPRPRPRPCTGPRP,0.0659
5,RRIRTRPPRLPRPRPRPFLIPRP,-0.378
6,RRIRIRPPRLPRPRPRPSDSPRP,-0.0385
7,RRIRARPPRLPRPRPRPHWPPRP,0.233
8,RRIRPRPPRLPRPRPRPIHSPRP,-0.0694
9,RRIRMRPPRLPRPRPRPAPGPRP,2.04
10,RRIRDRPPRLPRPRPRPRWNPRP,0.0976
11,RRIRPRPPRLPRPRPRPNPSPRP,-0.138
12,RRIRTRPPRLPRPRPRPNESPRP,-0.379
13,RRIRGRPPRLPRPRPRPMIYPRP,0.0378
14,RRIRDRPPRLPRPRPRPVVRPRP,0.155
15,RRIRERPPRLPRPRPRPQYWPRP,-0.617
16,RRIRYRPPRLPRPRPRPPQIPRP,-0.178
17,RRIRHRPPRLPRPRPRPVNAPRP,-0.0381
18,RRIRFRPPRLPRPRPRPEWMPRP,0.236
19,RRIRDRPPRLPRPRPRPNYGPRP,-0.0075
20,RRIRTRPPRLPRPRPRPLSFPRP,-0.124
21,RRIRRRPPRLPRPRPRPQEVPRP,-0.00192
22,RRIRARPPRLPRPRPRPPAGPRP,0.883
23,RRIRDRPPRLPRPRPRPINYPRP,0.0585
24,RRIRARPPRLPRPRPRPECEPRP,0.0705
25,RRIRPRPPRLPRPRPRPAVYPRP,-0.0879

row,Sequence,shrunken log2 fold change
1,RRIRGRPPRLPRPRPRPRGRPRP,1.52
2,RRIRSRPPRLPRPRPRPCDFPRP,-0.108
3,RRIRFRPPRLPRPRPRPCFEPRP,-0.0728
4,RRIRLRPPRLPRPRPRPDCHPRP,0.092
5,RRIRPRPPRLPRPRPRPPHQPRP,0.146
6,RRIRARPPRLPRPRPRPCNLPRP,-0.314
7,RRIRDRPPRLPRPRPRPDPLPRP,0.64
8,RRIRYRPPRLPRPRPRPSDCPRP,-0.0875
9,RRIRDRPPRLPRPRPRPQVNPRP,-0.182
10,RRIRRRPPRLPRPRPRPHTCPRP,0.0847
11,RRIRHRPPRLPRPRPRPEAWPRP,0.0548
12,RRIRRRPPRLPRPRPRPEEGPRP,0.00715
13,RRIRDRPPRLPRPRPRPAPHPRP,0.852
14,RRIRLRPPRLPRPRPRPQYQPRP,-0.801
15,RRIRRRPPRLPRPRPRPICHPRP,0.692
16,RRIRWRPPRLPRPRPRPVGGPRP,0.494
17,RRIRLRPPRLPRPRPRPLVQPRP,-0.0853
18,RRIRSRPPRLPRPRPRPKKLPRP,0.0709
19,RRIRSRPPRLPRPRPRPSGWPRP,0.434
20,RRIRPRPPRLPRPRPRPVLQPRP,0.162
21,RRIRIRPPRLPRPRPRPACKPRP,-0.659
22,RRIRMRPPRLPRPRPRPSGDPRP,0.839
23,RRIRIRPPRLPRPRPRPWVLPRP,-0.142
24,RRIRERPPRLPRPRPRPHKIPRP,-0.13
25,RRIRRRPPRLPRPRPRPFLFPRP,0.0785
